# Laboratory results reported in the DeepSol protein solubility set.
# Experiment: soluble on expression in E. coli; label from the status in PepcDB or PDB records
row,Sequence,soluble on expression in E. coli
1,MMSLAWPLFRVTEQAALAAWPQTGCGDKNKIDGLAVTAMRQALNDVAFRGRVVIGEGEIDHAPMLWIGEEVGKGDGPEVDIAVDPIEGTRMVAMGQSNALAVMAFAPRDSLLHAPDMYMKKLVVNRLAAGAIDLSLPLTDNLRNVAKALGKPLDKLRMVTLDKPRLSAAIEEATQLGVKVFALPDGDVAASVLTCWQDNPYDVMYTIGGAPEGVISACAVKALGGDMQAELIDFCQAKGDYTENRQIAEQERKRCKAMGVDVNRVYSLDELVRGNDILFSATGVTGGELVNGIQQTANGVRTQTLLIGGADQTCNIIDSLH,soluble
2,IQLQQATQLHFSELGKLLDDLRVEKHINEVRLKLTPSFAFKWLVPKLESFQLENPEIQVQIFAEGALVNSDLKDYDVAIDYGLHPYRDHDAELILDEKLLPVMSPKYLEDHRWLKTPFGDQTSSMSANQWQAATLLHDAMPWEKATRDYEWLYWASAMGFDFKTDVGHFFNRTDMAMSAAEAGVGIAMARMALIEDELTTKRLVSPFAPIPANAGYYLIMNTRSQSTERFREWLLKQIESRR,not soluble
3,MYRTPAAIVADATVGIPLVRFVTEEMEMTPELVALYTSHRSVWELLEGELKSLGLNPKVVYGTDVYKTRKSLQEVRPRVVFGSTIERHASEGLPVAYVVEVVRMMRQFRMINREYFGYTGILNLLECVQNEWVMGWRSKELEHHHHHH,not soluble
4,VDMSNVVKTYDLQDGSKVHVFKDGKMGMENKFGKSMNMPEGKVMETRDGTKIIMKGNEIFRLDEALRKGHSEGG,soluble
5,MLPNNQWQIPINNGLTHQENMAAHAAVMKLRVHDLQSIISQLSLRKPRPQKSEHQKVVVESLRDPHHARQIYQMVISLIFSSLQASNFPNGNYEMQKRPATTSQVRSHPYVLPSRSGASNHLVNHHYQQQQQQQPQPHNLLHQQMMASHHSHLQQQHHPSTVRWLTPELLEEQLRGSMRYGAPAAAAATNAPLHSSFPNHGRSSQQSLQKSEKSNRPKKMYADNFEPLPLPFYDVISVLLKPVELHSSDSPTLKQTKQLQFPFLLTAEHISKISYRADVTPLPRYELQLRFFNLTEPVQGPQKDDFPLNCYARVDDSVVQLPNVIPTNKTNAEPKRPSRPVNITSNMNRYKKEHTVAVEWLADKRVWAAGVYFVHRVNSDILFKRLNQNVSRHRSLEVTKQEVIKKLSGGEDDIAMDRLNISLLDPLCKTRMTTPSRCQDCTHLQCFDLLSYLMMNEKKPTWQCPVCSSNCPYDRLIVDDYFLDMLAKVDKNTTEVELKEDGSYDVIKEEAFCISDDDDDDVVPATVNGTASCSSTNGNGLANEAAKKKPADDDIITLSDDDDEELNRGIMNSLNDSFSPGRHTASAELAAQKTPPQQKKKTKDDDIEIITLDDTPPRPVAASANLPMRQMSQQNQMPVGSSPSGMASTQMGMNEGASKTIRDALNKIGEQSANSSTQSSPLVQLHHTTHPLNFAQSSYMNPSSGSQTPTSQYGYSPMINQAPHFQMQNGLIGRNNQMVHMQQHHLQQQQQQQQSPQIMSPSFYAQQQMSNGGAFAYYPPQYPQQQYRQN,not soluble
6,MRSSNNRHEGEEAMNRTQQWMEDLQKNISDLIARSPAADVERNVRAMMTQTFARLDLITREEFEVQVDLLARARTRVDQLSAQVQQLEARLAALEAGKPQA,not soluble
7,FDSFKIEGRAKNADYVMRTTKIYREAIDSVLDGSYYDKLEYFKKELQKVYNRSYDTGFYFRDINKNHDFQYEIEGNASKYRKIEIGRVVNFYKKVSVAEIELWHDLKIGDTILIIGKTTGCVEEVVKSMQINHKDVEIAKKGERVGVKLNHLVREGDRVYLLKET,not soluble
8,MSALLPIINRLILQSPDSRSELAAFAGKTLTLNIAGLKLAGRITEDGLLSAGNGFADTEITFRNSAVQKILQGGEPGAGDIGLEGDLILGIAVLSLLGSLRSRASDELARIFGTQADIGSRAADIGHGIKQIGRNIAEQIGGFSRESESANIGNEALADCLDEISRLRDGVERLNERLDRLERDIWID,not soluble
9,EVVVVGYSTQKKESLTGALQTVKSDKLKDITTPSVENMLNGKVPGVYVAPGSGQPGSGGAVVIRGQATLSGTTAPLWVIDGVIVGSNAGALNPSDIETMTILKDAASTAIYGSQGANGVILVTTKNGK,not soluble
10,MGSDKIHHHHHHMHSLQQLKSQLLSYHAGILGEEYVKKSAVFIPLVEKDDGVHVLFEVRAHTLKQQPGEICFPGGRIDPEDASPEEAAIRETSEELGIPSSVIAPITSLDVLVTPFRGIIYPVIGSIPHKNDYPLNQAEVDHVFTVPIDHFISHPPEQYRINVHFEPGAGFPIERIANQSAYQKSTRQITESFYYYQSYVIWGLTAKILRHVITILKPS,not soluble
11,SMQQRKVLTLEKEDNQTFGFEIQTYGLHHREEQRVEMVTFVCRVHESSPAQLAGLTPGDTIASVNGLNVEGIRHREIVDIIKASGNVLRLETLYSSTL,soluble
12,SYPSLFAPLDLGFTTLKNRVLMGSMHTGLEEYPDGAERLAAFYAERARHGVALIVSGGIAPDLTGVGMEGGAMLNDASQIPHHRTITEAVHQEGGKIALQILHTGRYSYQPHLVAPSALQAPINRFVPHELSHEEILQLIDNFARCAQLAREAGYDGVEVMGSEGYLINEFLTLRTNQRSDQWGGDYRNRMRFAVEVVRAVRERVGNDFIIIYRLSMLDLVEDGGTFAETVELAQAIEAAGATIINTGIGWHEARIPTIATPVPRGAFSWVTRKLKGHVSLPLVTTNRINDPQVADDILSRGDADMVSMARPFLADAELLSKAQSGRADEINTCIGCNQACLDQIFVGKVTSCLVNPRACHETKMPILPAVQKKNLAVVGAGPAGLAFAINAAARGHQVTLFDAHSEIGGQFNIAKQIPGKEEFYETLRYYRRMIEVTGVTLKLNHTVTADQLQAFDETILASGIVPRTPPIDGIDHPKVLSYLDVLRDKAPVGNKVAIIGCGGIGFDTAMYLSQPGESTSQNIAGFCNEWGIDSSLQQAGGLSPQGMQIPRSPRQIVMLQRKASKPGQGLGKTTGWIHRTTLLSRGVKMIPGVSYQKIDDDGLHVVINGETQVLAVDNVVICAGQEPNRALAQPLIDSGKTVHLIGGCDVAMELDARRAIAQGTRLALEI,soluble
13,MAGDPMAYQQGKQGQNVEKESTRQQETKPIHVKDTTQETKDNGTRTDIAKHLVSVAEKNPDVKDATAVVLGGYAVVGIDVDDTLDRSKVETIKYSVAQALKNDRYGANAVVIADPDTVSRLREMSREISEGHPVTGILDELAAIVGRVLPEVPNDVIDNEDEPQTKQQNDQLNRKQQQEMEKEQNDQSDHHMKKNNNDLEHHHHHH,soluble
14,MDYSSSLPQSDRSTSTAAGHWVLARAGKRVLRPGGLKLTKRMLSAADMQGKEIVEFAPGLGRTAQLIVTEGVSSYVGVDQDSAAVARVEAIVKPHGGTVINAKAHDTGLSGESAEVVVGEAMLTMQGEKAKAEIVAEAFRLLKPGGYYAIHELGLTPNDIDPELADGLRKQLAQTIRVNARPLTENEWRTVLTNAGFEVEWISFAPMALLSPKRNLADEGFLGVVRIIRNLIRDKALRARVFQMRSTFNKYRDHLTGIAIVAKKPSN,not soluble
15,MTPPVSAFKKTPKKEEHPLVAIVILDAFDQRFAPTHESYPCFGTIPICNVPAINFALSWLMRTEVKNVMLVVSGLNADHATSVQREWRLAFDEFTVVVCDGASSVGDCMREIHNRELITGDFMLISNPTAVVSSTLSAQISEFRKRRRENPDNVMTLLYSNRENPEHLVLGINSETSKLMLFPAANSLNQLKASKKDFYDEVDIRRDLTPTGIAFCSRLIATQFSDNFDFVGIDDVVREILSKDDILGMSVHVEVLSPKERAFCAYDYESLILLNILMLERWFYPLVPENSDPSRYFSANPRNLYLEENGDEISIKANTWILNNNCSTVCLGVKTDIAYDAFIRNSCIGAHTEISSKTRITSSMIGKNCKIGENCVIEYAFIGDDVVIPNGAHIPKESIIGNGVMYPKELPNIQNTAIFKNAINEETFEKLSSQPIGNVHVSKFRNGGPFWRRSVNGKTNFALEEDDSESEYSESEEEDDGVGNSTKMFHDEVLESMQKILESENSLMRNLILEINSSKLACNVTMDEVARNVFAAFMKLKHNQDFNKMKELIVKWQPLFLNYYKTSAESLKVKSADQKRFELDLKRRCQIQLLLAIEDKFDRDESFGVKAQALVHYLYQEADILDEDSIIEWAGSIAEESKLKGLMKKIVDWLQEDDDEEESEDE,not soluble
16,MGSDKIHHHHHHMKILYIITGLPTGGAEMMLYKLLSQINQERFEPIVVSLMDRGTLGDRIEALGIPVHTIGMNRGGIPMPVDVWRLVHLVDRLQPDIIQGWMYHGNLAAQFASFLNGNKIPIVWSIHYSIDSLESDKKMTVAIIKFSAYISRLPKQVLFVSQNSKLQHEALGYSSKNSCIIPNGFDTISFSPSLTERVDVRSELSLPHESLLIGLICRYHPMKDHANFIQAAALFLKEHPNINFLMIGQGVDRDNPTLNKLIKELGIGDRISLLGERKDIPRLITSLDIFTSASAYGEAFPLVIGEAMSCGIPCVVTDVGDSGWIVGNTGKVIPPRNPQMLADAWKELIALGEEGRNILGKAARARITEDFALNSVVAKYELVYEKILSNMST,not soluble
17,MGSDKIHHHHHHMNFKQLLIDNFTYKTSYIARQAQGMNVKETKDYIAVDCGLPADTFNIITLLNNNVTEGIEKLYKEVNNYNQKKFPMSVWFWDDRYEQTIKSELIKLDLKEAEQNIAMVAELNTIHPTINMPEGFTIQKASSPEQIKKFGETLANLFGSSEEGIHVQAFYNQTASFDLWNSGNMNLYLGLYKDEVISVGSLVCTKDSIGIYDIATKEEMRGKGFGSTMFHYLLQEAKALNVAQCVLQASPDGINIYKKAGFQSVGQMTVFENRHLFE,not soluble
18,MSLADQAIHWLFPTPVLQADLTPTADVALAMDQQLALFDREVFSHPEFSNRNNLTGDLLGKAGLDQLHRLEAFQWLNQQLAVHVDAFLRELLGPNHALEVHIQKAWPVVCARQGGTIEPHTHRNAQLSAVFYVRTEPDNPSGELEFQAADDYFSHVMAIPYRDAAVSGGVFAPQQHRLLLFPSDLRHQVTPYEGASPRYSVSYDLAITTAPGHGREMRMPHPMDWVPLCKPGPAEGHHHHHH,soluble
19,MSLNTVYHSYQSLPNEGWGKSDTLSFQCPVTDSIPGTLRLFAEVRNRSEYPYRNLYLFIHENLLDSTVWRTDTIAVNLADSTGRWTGNGWGSIYQTAVFVKSVRPLHPGNYTVKIVHGMQDEKLTGLNDVGIRIEKQGEGHHHHHH,soluble
20,MSLEHFFTGTVDRIIFENAANFFKILLLAIEDTDSDIDDFEIIITGTMADIIEGDDYTFWGELTQHPKYGQQLKLSRYQKIKPSSSGLVNYFSSDHFKGIGKKTAEKIIALYGHNTIDHILEDPSKLETISGLSKANRQAFVAKLKLNYGTEQLIAGLVELGLSNRFALQAFEKYKEEALDLVKENPYQLVEDLQGFGFKMADALAENLGIESDSPKRFRAALLHCLLEESINRGDTYVQARQLLDFAITLLEDARQVECDPAAVAEQLSELIIEGKIKNSDTKLFDASLYFAEEGIANNISRLLDTPLSQSFSHDTIQTTIQAVQKDFAITYDQVQQEAITKALTSKVFLLTGGPGTGKTTVIRGILQAYANLHQIDLDKKDLPILLAAPTGRAARRMNELTGLPSATIHRHLGLNGDNDYQAMEDYLDCDLLIVDEFSMVDTWLANQLLGAINSTTQVIIVGDSDQLPSVGPGQVLSDLLKVNSLPQIALQKIFRQSQESTIVNLADQMRRGILAADFRDKKADRSYFEAQAAFIPDMIQKIVLSAIKSGIPAEEIQILAPMYKGQAGINHLNQLMQELLNPLQGQTEFLFNDTHFRKGDKVLHLVNDAQLNVFNGDIGYITDLIPAKYTESKQDELILDFDGSEVTYPRNEWLKLTLAYAMSIHKSQGSEFQVVILPITRQSGRLLQRNVIYTAITRSKSKLILLGEYTAFEYAIKHEGDKRQTYLIERFQEQSDLASSEGHHHHHH,soluble
21,MPSTDFADIPAAKKMKIDTCVLRFAKLTENALEPVRGSAKAAGVDLRSAYDVVVPARGKAIVKTDLQVQVPEGSYGRVAPRSGLAVKNFIDVGAGVVDEDYRGNLGVVLFNHSDVDFEVKHGDRIAQFICERIFYPQLVMVDKLEDTERGEAGFGSTGVK,soluble
